Test results taken from paper PMC7291239.

Key:
[1] = molecular target: AnxA2 6x (AnxA2 A66E with K81A, E189K, R196S, K206A, K212S, E219K, alkylated at Cys-8) (human) (UniProt P07355); assay: cross-linking; Ca2+/membrane sample: AnxA2 (60 ug) bound to LUVs (100 nm, POPC:DOPC:Chol:POPS 40:20:20:20, 100 ug) with 1 mM CaCl2 in HBS pH 7.4, 0.3 mM Biotin3xNHSX-Linker added after 30 min for 30 min; 10% SDS-PAGE, Coomassie; oligomer bands above the dimer position quantified against the monomer band
[2] = molecular target: AnxA2 10x (AnxA2 A66E 6x with R36S, V53A, T54A, K328A in addition, alkylated at Cys-8) (human) (UniProt P07355); assay: as above

Row | Substance | crosslinked oligomers, percent of wild type (% of wild type) [1] | crosslinked oligomers, percent of wild type (% of wild type) [2]
1 | AnxA2 6x (AnxA2 A66E with K81A, E189K, R196S, K206A, K212S, E219K, alkylated at Cys-8) (from UniProt P07355 21-339) (natural protein) | 48 | 
2 | AnxA2 10x (AnxA2 A66E 6x with R36S, V53A, T54A, K328A in addition, alkylated at Cys-8) (from UniProt P07355 21-339) (natural protein) |  | 33
